From patent US20030223992A1 (SCHERING, published 2003)
Where no end group is shown, it is not given here.

B1: Human P517 (peptide)
peptide: KKGGFSFRF-NH2
B2: Human P51 (peptide)
peptide: EHAGCRFRF-NH2
B3: Human P52 (peptide)
peptide: GGFSFRF-NH2
B4: Human P513 (peptide)
peptide: KGGFSFRF-NH2

Target: T1, Human SP9155 receptor (human, UniProt Q96P65 1-431)
T1 sequence: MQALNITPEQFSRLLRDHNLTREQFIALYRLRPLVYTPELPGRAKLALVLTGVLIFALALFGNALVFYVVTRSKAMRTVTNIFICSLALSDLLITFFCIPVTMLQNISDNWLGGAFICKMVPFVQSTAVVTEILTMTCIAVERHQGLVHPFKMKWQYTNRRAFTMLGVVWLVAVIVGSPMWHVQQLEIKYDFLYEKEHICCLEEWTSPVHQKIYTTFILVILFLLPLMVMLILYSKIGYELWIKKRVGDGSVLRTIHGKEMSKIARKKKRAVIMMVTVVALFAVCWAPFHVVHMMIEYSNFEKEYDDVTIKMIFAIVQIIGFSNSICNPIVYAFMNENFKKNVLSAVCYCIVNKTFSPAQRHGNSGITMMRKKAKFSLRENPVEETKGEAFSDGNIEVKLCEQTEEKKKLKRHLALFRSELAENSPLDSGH
Test: cell-based or functional assay

Point of comparison: B2, “EC50 (nM), Ca2+ flux (FLIPR) in HEK293 cells transfected with SP9155 receptor” value 1560 nM. Against it:
- B1 — 6.6-fold lower, 235 nM
- B3 — 6.4-fold lower, 245 nM
- B4 — 6-fold lower, 258 nM
